In the RNAGym collection of RNA variant scans (doi:10.7554/elife.80360) one finds self-cleavage data, which are given here for 39 variants.

The chains are these.
B1: CPEB3 Ribozyme (parent)
chain: GGGGGCCACAGCAGAAGCGUUCACGUCGCGGCCCCUGUCAGAUUCUGGUGAAUCUGCGAAUUCUGCUGU

In the data set the parent is B1. As to the kind of experiment: self-cleavage, relative activity (ratio to wild type); higher = more cleavage; co-transcriptional.
For GGCGGCCACAGCAGAAGCGUUCACGUCGCGGCCCCUGUCAGAUUCUGGUGAAUCUGCGAAUUCUGUUGU, the self-cleavage worked out at 0.127.
In the case of GGCGGCCACAGCAGAAGCGUUCACGUCGUGGCCCCUGUCAGAUUCUGGUGAAUCUGCGAAUUCUGCUGU it was 0.0376; in that of GGCGGCCACAGCAGAAGCGUUCACGUCGAGGCCCCUGUCAGAUUCUGGUGAAUCUGCGAAUUCUGCUGU, 0.0865.
In the case of GGCGGCCACAGCAGAAGCGUUCACGUCGCGGCCCCUGUCAGAUUGUGGUGAAUCUGCGAAUUCUGCUGU it was 0.0888; in that of GGCGGCCACAGCAGAAGCGUUCACGUCGCGGCCCCUGUCAGAUUCUGGUGAAUCUGCGAAUUCUGCUUU, 0.374; in that of GGCGGCCACAGCAGAAGCGUUCACGUCGCGGCCCCUGUCAGAUUCUGGUGAAUAUGCGAAUUCUGCUGU, 0.0635.
As for GGCGGCCACAGCAGAAGCGUUCACGUCGCGGCCCCUGUCAGAUUCUGGUGAAUUUGCGAAUUCUGCUGU, the self-cleavage was found to be 0.125.
In the case of GGCGGCCACAGCAGAAGCGUUCACGUCGCGACCCCUGUCAGAUUCUGGUGAAUCUGCGAAUUCUGCUGU it was 0.0559.
In the case of GGCGGCCACAGCAGAAGCGUUCACGUCGCGUCCCCUGUCAGAUUCUGGUGAAUCUGCGAAUUCUGCUGU it was 0.048.
In the case of GGCGGCCACAGCAGAAGCGUUCACGUCGCGGUCCCUGUCAGAUUCUGGUGAAUCUGCGAAUUCUGCUGU, the self-cleavage was 0.0592.
Regarding GGCGGCCACAGCAGAAGCGUUCACGUCGCGGGCCCUGUCAGAUUCUGGUGAAUCUGCGAAUUCUGCUGU, the self-cleavage turned out to be 0.0514.
In the case of GGCGGCCACAGCAGAAGCGUUCACGUCGCGGCCCCUGUCAGAUUCUGGUGAAUCUGCCAAUUCUGCUGU it was 0.0803; in that of GGCGGCCACAGCAGAAGCGUUCACGUCGCGGCCUCUGUCAGAUUCUGGUGAAUCUGCGAAUUCUGCUGU, 0.45.
GGCGGCCACAGCAGAAGCGUUCACGUCGCGGCCACUGUCAGAUUCUGGUGAAUCUGCGAAUUCUGCUGU: the self-cleavage was found to be 0.465.
In the case of GGCGGCCACAGCAGAAGCGUUCACGUCGCGGCCCCUGUAAGAUUCUGGUGAAUCUGCGAAUUCUGCUGU it was 0.0598; in that of GGCGGCCACAGCAGAAGCGUUCACGUAGCGGCCCCUGUCAGAUUCUGGUGAAUCUGCGAAUUCUGCUGU, 0.0183; in that of GGCGGCCACAGCAGAAGCGUUCACGUCGCGGCCCCUGUCAGAUUCUGAUGAAUCUGCGAAUUCUGCUGU, 0.117.
In the case of GGCGGCCACAGCAGAAGCGUUCACGACGCGGCCCCUGUCAGAUUCUGGUGAAUCUGCGAAUUCUGCUGU, the self-cleavage was 0.0495.
In the case of GGCGGCCACAGCAGAAGCGUUCACGUCGCGGCCCCUGUCAGAUUCUGGUGAAUCUCCGAAUUCUGCUGU it was 0.0668; in that of GGCGGCCACAGCAGAAGCGUUCACGUCGCGGCCCCUGUCAGAUUCUGGUGAAUCUACGAAUUCUGCUGU, 0.0675.
In the case of GGCGGCCACAGCAGAAGCGUUCACGUCGCGGCCCCUGUCAGAUUCUGGAGAAUCUGCGAAUUCUGCUGU it was 0.168.
In the case of GGCGGCCACAGCAGAAGCGUUCACGUCGCGGCGCCUGUCAGAUUCUGGUGAAUCUGCGAAUUCUGCUGU it was 0.0238; in that of GGCGGCCACAGCAGAAGCGUUCACGUCGCGGCCCCUGUCAGAUUCUGGUGAAUCUGCGAAUUGUGCUGU, 0.0687; in that of GGCGGCCACAGCAGAAGCGUUCACGUCGCGGCCCCUGUCAGAUUCUGGUGAAUCUGCGAAUUUUGCUGU, 0.171.
On to GGCGGCCACAGCAGAAGCGUUCACGUCGCGGCCCCUGCCAGAUUCUGGUGAAUCUGCGAAUUCUGCUGU, for which the self-cleavage stood at 0.0718.
In the case of GGCGGCCACAGCAGAAGCGUUCACGUCGCGGCCCCUGUCAGAUUCGGGUGAAUCUGCGAAUUCUGCUGU it was 0.068; in that of GGCGGCCACAGCAGAAGCGCUCACGUCGCGGCCCCUGUCAGAUUCUGGUGAAUCUGCGAAUUCUGCUGU, 0.
GGCGGCCACAGCAGAAGCGUUCACGUCGCGGCCCCUGUCACAUUCUGGUGAAUCUGCGAAUUCUGCUGU: the self-cleavage was found to be 0.0352.
As for GGCGGCCACAGCAGAAGCGUUCACGUCGCUGCCCCUGUCAGAUUCUGGUGAAUCUGCGAAUUCUGCUGU, the self-cleavage stood at 0.0314.
In the case of GGCGGCCACAGCAGAAGCGUUCACGUCGCGGCCCAUGUCAGAUUCUGGUGAAUCUGCGAAUUCUGCUGU, the self-cleavage stood at 0.0343.
In the case of GGCGGCCACAGCAGAAGCGUUCACGUCGCGGCCCGUGUCAGAUUCUGGUGAAUCUGCGAAUUCUGCUGU it was 0.0557; in that of GGCGGCCACAGCAGAAGCGUUCACGUCGCGGCCCCUGUCAGAUUCUGGUGAAUCUGCGAAUUCUACUGU, 0.117.
In the case of GGCGGCCACAGCAGAAGCGUUCACGUCGCGGCCCCUGUCAGACUCUGGUGAAUCUGCGAAUUCUGCUGU it was 0.121; in that of GGCGGCCACAGCAGAAGCGUUCACGUCGCGGCCCCUGUCAGAUUCUGGUCAAUCUGCGAAUUCUGCUGU, 0.0988; in that of GGCGGCCACAGCAGAAGCGUUCACGUCGCGGCCCCUGUCAGAUUCUGGUUAAUCUGCGAAUUCUGCUGU, 0.133.
Take GGCGCCCACAGCAGAAGCGUUCACGUCGCGGCCCCUGUCAGAUUCUGGUGAAUCUGCGAAUUCUGCUGU: the self-cleavage worked out at 0.0475.
For the variant GGCGGCCACAGCAGAAGCGUUCACGUCGCGGCCCCUGUCAGAUCCUGGUGAAUCUGCGAAUUCUGCUGU, the self-cleavage was found to be 0.132.
With GGCGGCCACAGCAGAAGCUUUCACGUCGCGGCCCCUGUCAGAUUCUGGUGAAUCUGCGAAUUCUGCUGU, the self-cleavage was determined as 0.0242.
In the case of GGCGGCCACAGCAGAAGCGUUCACGUCUCGGCCCCUGUCAGAUUCUGGUGAAUCUGCGAAUUCUGCUGU it was 0.0508.
